Reference: patent publication US20260174875A1 (Novo Nordisk A/S, priority 2023, published 2026)
Numbered stars: 1 amine (or outer) side, 2 acyl side, 3 side chain; on linkers, the order of the positions; unused ones are H or OH. Square brackets hold non-standard residues; d marks the D form. Side chains are listed from the residue outwards. * marks the point of attachment. C20 diacid = O=C(O)CCCCCCCCCCCCCCCCCCC(=O)*; C18 diacid = O=C(O)CCCCCCCCCCCCCCCCC(=O)*; γGlu = O=C(O)[C@H](CCC(=O)[*:2])N[*:1]; Chem. 28 = not defined here; Chem. 29 = not defined here; AEEA = NCCOCCOCC(=O)O; Aib = CC(C)(N)C(=O)O

T1: human GIP receptor (human, UniProt P48546 22-466)
T1 sequence (looked up): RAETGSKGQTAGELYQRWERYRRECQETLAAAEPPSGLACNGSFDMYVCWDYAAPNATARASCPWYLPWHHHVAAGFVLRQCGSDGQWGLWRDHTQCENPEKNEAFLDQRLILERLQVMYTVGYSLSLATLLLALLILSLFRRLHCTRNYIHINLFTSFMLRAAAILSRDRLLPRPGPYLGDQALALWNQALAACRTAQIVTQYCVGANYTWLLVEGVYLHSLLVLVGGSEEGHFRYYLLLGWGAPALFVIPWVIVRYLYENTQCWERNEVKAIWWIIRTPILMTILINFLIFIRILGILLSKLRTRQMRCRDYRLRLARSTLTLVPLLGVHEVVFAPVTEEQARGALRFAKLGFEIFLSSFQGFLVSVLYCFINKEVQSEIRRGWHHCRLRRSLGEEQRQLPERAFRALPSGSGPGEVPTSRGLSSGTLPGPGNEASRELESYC

T2: human amylin-3(a) receptor (human, UniProt P30988 25-474; O60896 24-148)
T2 sequence (looked up) 1: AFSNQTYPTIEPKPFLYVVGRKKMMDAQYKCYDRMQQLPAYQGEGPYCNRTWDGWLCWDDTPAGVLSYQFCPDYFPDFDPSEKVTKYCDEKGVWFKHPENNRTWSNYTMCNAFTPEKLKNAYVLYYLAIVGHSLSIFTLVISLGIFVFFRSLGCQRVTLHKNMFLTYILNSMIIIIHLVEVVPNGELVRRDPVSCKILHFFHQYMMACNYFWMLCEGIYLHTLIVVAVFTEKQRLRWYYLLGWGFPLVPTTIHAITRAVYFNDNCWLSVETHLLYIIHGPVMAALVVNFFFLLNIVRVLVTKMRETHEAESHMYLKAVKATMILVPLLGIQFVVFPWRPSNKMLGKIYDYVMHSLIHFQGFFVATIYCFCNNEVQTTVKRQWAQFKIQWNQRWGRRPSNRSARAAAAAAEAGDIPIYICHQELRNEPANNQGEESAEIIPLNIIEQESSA
T2 sequence (looked up) 2: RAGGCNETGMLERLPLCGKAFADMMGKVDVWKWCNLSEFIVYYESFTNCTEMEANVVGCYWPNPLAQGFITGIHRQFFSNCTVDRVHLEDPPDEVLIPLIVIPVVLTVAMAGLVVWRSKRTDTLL


Assays:
Assay in all cases: cell-based or functional assay
[1] = biological target: T3, human GLP-1 receptor (human, UniProt P43220 24-463)
[2] = biological target: T1, human GIP receptor
[3] = biological target: T2, human amylin-3(a) receptor
[4] = biological target: T3, human GLP-1 receptor; remark: listed apart in the source
[5] = biological target: T1, human GIP receptor; remark: listed apart in the source
[6] = biological target: T2, human amylin-3(a) receptor; remark: listed apart in the source

hGLP-1R Potency, no HSA, EC50 [pM] [1] [pM]	hGIPR Potency, no HSA, EC50 [pM] [2] [pM]	hAMYR3 Potency, no HSA, EC50 [pM] [3] [pM]	hGLP-1R Potency, 1% HSA, EC50 [pM] [4] [pM]	hGIPR Potency, 1% HSA, EC50 [pM] [5] [pM]	hAMYR3 Potency, 1% HSA, EC50 [pM] [6] [pM]	Binder
4.12	5.68	3.7	48.8	40.4	102	Compound 88 (peptide) peptide: H[Aib]HGTFTSDYSILLEEQAAREFIEWLLAGGPSSGEASHLSTAALGRLSAELHK([AEEA-AEEA-γGlu-C18 diacid])LATLPRTETGSGSP-NH2
3.79	3.21	2.26	17.4	9.31	28.8	Compound 91 (peptide) peptide: H[Aib]HGTFTSDYSILLEEQAAREFIEWLLAGGPSSGAGQAPGQAPGASHLSTAQTQRLSAELHRLK([AEEA-AEEA-γGlu-C18 diacid])TLPRTETGSGSP-NH2
4.11	2.54	2.23	16.4	8.58	66.4	Compound 93 (peptide) peptide: H[Aib]HGTFTSDYSILLEEQAAREFIEWLLAGGPSSGAGQAPGQAPLASHLSTAQTQRLSAELHK([AEEA-AEEA-γGlu-C18 diacid])LATLPRTETGSGSP-NH2
2.55	3.12	2.64	13.4	8.53	75.1	Compound 92 (peptide) peptide: H[Aib]HGTFTSDYSILLEEQAAREFIEWLLAGGPSSGAGQAPGQAPGASHLSTAQTQRLSAELHRLATLPK([AEEA-AEEA-γGlu-C18 diacid])TETGSGSP-NH2
16.8	3.62	3.73	162	29.9	595	Compound 96 (peptide) peptide: Y[Aib]EGTFTSDYSILLEEQAAREFIEWLLAGGPSGGGGEASHLSTAQTQRLSAELHK([AEEA-AEEA-γGlu-C20 diacid])LATLPRTETGSGSP-NH2
3.86	6.47	3.12	29.5	30.6	39.7	Compound 89 (peptide) peptide: H[Aib]HGTFTSDYSILLEEQAAREFIEWLLAGGPSSGEASHLSTAALGRLSAELHRLK([AEEA-AEEA-γGlu-C18 diacid])TLPRTETGSGSP-NH2
13.3	2.58	2.3	43.1	11.2	108	Compound 98 (peptide) peptide: Y[Aib]EGTFTSDYSILLEEQAAREFIEWLLAGGPSSGAGQAPGQAPLASHLSTAQTARLSAELHK([AEEA-AEEA-γGlu-C18 diacid])LATLPRTETGSGSP-NH2
5.85	3.95	3.05	307	217	210	Compound 100 (reading uncertain) peptide: H[Aib]HGTFTSDYSILLEEQAAREFIEWLLAGGPSK(Chem. 28)GAPPPSGGGEASHLSTAQTARLSAELHRLADLPRTETGSGSP-NH2
16.7	2.09	2.82	36.2	7.41	129	Compound 99 (not fully specified (residue 62)) peptide: Y[Aib]EGTFTSDYSILLEEQAAREFIEWLLAGGPSSGALQAPGQAPLASHLSTAQTQRLSAELHKLATLPRTETGSGSP-NH2
8.49	7.26	4.99	39.3	38.6	36.5	Compound 87 (peptide) peptide: H[Aib]HGTFTSDYSILLEEQAAREFIEWLLAGGPSSGEASHLSTAALGRLSAK([AEEA-AEEA-γGlu-C18 diacid])LHRLATLPRTETGSGSP-NH2
3.52	2.71	4.4	30.3	14.6	250	Compound 85 (peptide) peptide: H[Aib]HGTFTSDYSILLEEQAAREFIEWLLAGGPSSGEASHLSTAQTQRLSAELHK([AEEA-AEEA-γGlu-C18 diacid])LATLPRTETGSGAP-NH2
16.1	2.3	2.81	109	8.38	132	Compound 97 (peptide) peptide: Y[Aib]EGTFTSDYSILLEEQAAREFIEWLLAGGPSSGAGQAPGASHLSTAQTQRLSAELHK([AEEA-AEEA-γGlu-C18 diacid])LATLPRTETGSGSP-NH2
4.16	5.4	5.45	38.6	32.5	183	Compound 90 (peptide) peptide: H[Aib]HGTFTSDYSILLEEQAAREFIEWLLAGGPSSGEASHLSTAALGRLSAELHRLATLPK([AEEA-AEEA-γGlu-C18 diacid])TETGSGSP-NH2
16.1	2.9	3.91	130	29.5	377	Compound 94 (peptide) peptide: Y[Aib]EGTFTSDYSILLEEQAAREFIEWLLAGGPSRGEASHLSTAQTQRLSAELHK([AEEA-AEEA-γGlu-C20 diacid])LATLPRTETGSGSP-NH2
13.8	2.11	6.8	246	42.4	175	Compound 10 (reading uncertain) peptide: Y[Aib]EGTFTSDYSILLEEQAAREFIEWLLAGGPSK(Chem. 29)GAPPPSGGGEASELSTAALGRLSAELHELATLPRTETGSGSP-NH2
6.69	5.11	3.31	130	122	58.4	Compound 86 (peptide) peptide: H[Aib]HGTFTSDYSILLEEQAAREFIEWLLAGGPSK([AEEA-AEEA-γGlu-C18 diacid])GAPPPSGGGASELSTAALGRLSAELHRLATLPRTETGSGSP-NH2
17.9	3.13	3.76	146	22.8	233	Compound 95 (peptide) peptide: Y[Aib]EGTFTSDYSILLEEQAAREFIEWLLAGGPSGGGGEASHLSTAQTQRLSAELHK([AEEA-AEEA-γGlu-C18 diacid])LATLPRTETGSGSP-NH2
